Reference: article PMC4414141, “The function of cux1 in oxidative dna damage repair is needed to prevent premature senescence of mouse embryo fibroblasts”

Experiments:
Conditions in all cases: protein: recombinant; tags: N-terminal His; label: 5'-32P on top strand
CUX1 CR2CR3HD = target: T1, CUX1 CR2CR3HD (UniProt P39880 934-1303); assay: EMSA; EMSA: 50 nM bacterially purified protein, 60 ng poly(dI-dC); buffer, salt, pH and temperature by reference to earlier work (not in material)
T1 sequence: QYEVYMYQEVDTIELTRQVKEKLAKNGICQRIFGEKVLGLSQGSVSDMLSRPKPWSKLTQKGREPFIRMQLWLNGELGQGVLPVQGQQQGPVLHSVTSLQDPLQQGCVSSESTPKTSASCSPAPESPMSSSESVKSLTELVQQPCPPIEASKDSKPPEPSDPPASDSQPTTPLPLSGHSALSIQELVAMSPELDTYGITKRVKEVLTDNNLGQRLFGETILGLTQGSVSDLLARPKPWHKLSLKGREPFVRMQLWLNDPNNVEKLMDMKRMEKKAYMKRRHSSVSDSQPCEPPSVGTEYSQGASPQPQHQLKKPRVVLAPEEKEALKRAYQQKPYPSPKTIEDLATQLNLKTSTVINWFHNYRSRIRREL

CUX1 CR1CR2 = target: T2, CUX1 CR1CR2 (UniProt P39880 542-1021); assay: as above
T2 sequence: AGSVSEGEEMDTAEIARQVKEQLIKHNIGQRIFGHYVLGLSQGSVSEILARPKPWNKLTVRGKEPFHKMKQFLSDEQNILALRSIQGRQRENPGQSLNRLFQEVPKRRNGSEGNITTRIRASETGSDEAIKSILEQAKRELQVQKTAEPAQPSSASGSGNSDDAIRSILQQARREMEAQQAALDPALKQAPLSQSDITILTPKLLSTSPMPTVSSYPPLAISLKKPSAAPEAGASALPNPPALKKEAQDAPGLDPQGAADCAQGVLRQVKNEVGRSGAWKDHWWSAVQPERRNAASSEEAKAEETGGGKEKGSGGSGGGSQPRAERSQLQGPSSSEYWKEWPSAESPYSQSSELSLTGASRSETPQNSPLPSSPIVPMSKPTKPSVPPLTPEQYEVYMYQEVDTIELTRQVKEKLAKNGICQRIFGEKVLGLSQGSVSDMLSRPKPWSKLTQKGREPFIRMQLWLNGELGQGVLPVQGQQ

CUX1 CR3HD = target: T3, CUX1 CR3HD (UniProt P39880 1117-1303); assay: EMSA; complex co-migrates with that of OGG1; EMSA: 50 nM bacterially purified protein, 60 ng poly(dI-dC); buffer, salt, pH and temperature by reference to earlier work (not in material)
T3 sequence: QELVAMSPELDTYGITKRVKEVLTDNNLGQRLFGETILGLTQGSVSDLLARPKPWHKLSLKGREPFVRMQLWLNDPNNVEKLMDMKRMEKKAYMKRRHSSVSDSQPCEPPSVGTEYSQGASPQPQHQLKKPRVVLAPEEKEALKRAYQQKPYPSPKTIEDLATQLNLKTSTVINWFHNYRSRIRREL

Measured: binding result

B1: Probe A, 8-oxoG (dsDNA)
DNA 1: CCGGTGCATGACACTGTGACCTATCCTCAGCG
DNA 2: CGCTGAGGATAGGTCACAGTGTCATGCACCGG
modifications: 8-oxoG at position X of top strand
binds: all assays above
